Assays:
[1] = biological target: Serum albumin (human) (human, UniProt P02768 25-609); assay: MSD specificity profiling, coated protein, Camille at 10 nM
Procedure: (§1) For this specificity profiling test the different proteins and controls were coated on two 384-well MSD plates with a concentration of 1 μg/ml at 4° C. over night. Plates were blocked with BSA and washed three times with PBS with 0.05% (v/v) Tween 20. Antibody samples were diluted to 100 nM and 10 nM in assay buffer (PBS with 0.5% (w/v) BSA, 0.05% (v/v) Tween 20). […] Samples and controls were incubated for three hours at room temperature. The plates were washed three times and 30 μl detection antibody (ECL-labeled anti-human Fab) were added per well and incubated for 1 h. After washing, MSD Read Buffer T with surfactant was added and electrochemiluminescence signals were detected using a Sector Imager 6000 (Meso Scale Discovery, Gaithersburg, Md., USA).

[2] = biological target: Anti-human Fab (Dianova, # 109-005-097); assay: as above
Procedure: as §1

[3] = biological target: T1, Fibrinogen (bovine) (bovine, UniProt P02672 20-615; P02676 1-468; P12799 25-444); assay: as above
T1 sequence (looked up) 1: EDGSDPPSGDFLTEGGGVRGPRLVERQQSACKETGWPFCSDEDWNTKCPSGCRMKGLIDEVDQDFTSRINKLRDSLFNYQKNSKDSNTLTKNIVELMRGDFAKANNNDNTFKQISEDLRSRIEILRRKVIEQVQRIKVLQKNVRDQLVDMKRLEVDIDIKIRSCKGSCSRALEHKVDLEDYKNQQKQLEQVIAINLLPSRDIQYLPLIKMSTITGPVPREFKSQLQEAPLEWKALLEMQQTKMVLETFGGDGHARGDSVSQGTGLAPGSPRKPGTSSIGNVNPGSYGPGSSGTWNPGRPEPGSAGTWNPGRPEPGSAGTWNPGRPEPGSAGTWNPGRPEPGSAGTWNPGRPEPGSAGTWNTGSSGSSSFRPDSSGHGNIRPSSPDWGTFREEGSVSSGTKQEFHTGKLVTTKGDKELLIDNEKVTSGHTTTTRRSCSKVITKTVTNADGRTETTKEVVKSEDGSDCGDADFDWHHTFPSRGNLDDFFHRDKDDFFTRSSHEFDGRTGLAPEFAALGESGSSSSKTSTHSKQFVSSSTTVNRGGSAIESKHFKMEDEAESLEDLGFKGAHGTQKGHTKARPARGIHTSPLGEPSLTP
T1 sequence (looked up) 2: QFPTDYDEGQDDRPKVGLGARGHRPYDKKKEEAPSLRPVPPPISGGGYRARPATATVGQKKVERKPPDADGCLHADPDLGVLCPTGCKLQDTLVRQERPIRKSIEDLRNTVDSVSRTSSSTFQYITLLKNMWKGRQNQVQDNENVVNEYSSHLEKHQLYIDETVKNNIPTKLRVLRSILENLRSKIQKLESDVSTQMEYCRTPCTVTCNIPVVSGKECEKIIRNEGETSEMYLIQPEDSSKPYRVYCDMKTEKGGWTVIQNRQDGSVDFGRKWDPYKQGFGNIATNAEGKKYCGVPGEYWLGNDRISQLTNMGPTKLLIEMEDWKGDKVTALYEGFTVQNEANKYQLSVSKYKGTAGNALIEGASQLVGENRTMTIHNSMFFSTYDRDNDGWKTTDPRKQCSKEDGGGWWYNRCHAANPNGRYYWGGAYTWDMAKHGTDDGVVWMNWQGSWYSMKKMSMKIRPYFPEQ
T1 sequence (looked up) 3: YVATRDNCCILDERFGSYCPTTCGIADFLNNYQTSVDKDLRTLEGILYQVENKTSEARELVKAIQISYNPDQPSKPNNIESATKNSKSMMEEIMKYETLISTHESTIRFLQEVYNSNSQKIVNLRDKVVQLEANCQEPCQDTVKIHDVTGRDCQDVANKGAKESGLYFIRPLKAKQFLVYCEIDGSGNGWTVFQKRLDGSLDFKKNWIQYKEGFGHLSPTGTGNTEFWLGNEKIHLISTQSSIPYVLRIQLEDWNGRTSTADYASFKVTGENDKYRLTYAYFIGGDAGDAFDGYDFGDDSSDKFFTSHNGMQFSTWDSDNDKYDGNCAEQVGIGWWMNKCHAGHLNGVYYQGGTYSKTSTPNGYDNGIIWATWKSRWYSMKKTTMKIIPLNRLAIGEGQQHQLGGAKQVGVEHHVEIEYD
Procedure: as §1

[4] = biological target: Cytochrome c (cow) (cow, UniProt P62894 2-105); assay: as above
Sequence of Cytochrome c (cow) (P62894 2-105 limits assumed): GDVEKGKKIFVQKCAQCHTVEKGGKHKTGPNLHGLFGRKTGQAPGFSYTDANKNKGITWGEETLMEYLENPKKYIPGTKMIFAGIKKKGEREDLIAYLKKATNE
Procedure: as §1

[5] = biological target: Trypsin inhibitor (Soybean) (Soybean); assay: MSD specificity profiling, coated protein, Camille at 100 nM
Sequence of Trypsin inhibitor (Soybean) (Soybean) (P01070 25-205): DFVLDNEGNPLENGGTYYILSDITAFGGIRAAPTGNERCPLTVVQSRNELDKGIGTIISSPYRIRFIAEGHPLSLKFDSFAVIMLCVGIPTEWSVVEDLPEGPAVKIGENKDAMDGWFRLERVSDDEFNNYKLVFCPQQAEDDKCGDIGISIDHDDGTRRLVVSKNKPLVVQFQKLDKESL
Procedure: as §1

[6] = biological target: T2, Lectin (Lens culinaris) (Lens culinaris, UniProt P02870 31-210; P02870 218-269, limits assumed); assay: as above
T2 sequence (looked up) 1: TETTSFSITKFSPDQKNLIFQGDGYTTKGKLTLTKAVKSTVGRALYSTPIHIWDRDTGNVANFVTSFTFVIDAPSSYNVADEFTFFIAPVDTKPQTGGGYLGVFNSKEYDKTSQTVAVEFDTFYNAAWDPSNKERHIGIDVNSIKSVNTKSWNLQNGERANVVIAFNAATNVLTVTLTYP
T2 sequence (looked up) 2: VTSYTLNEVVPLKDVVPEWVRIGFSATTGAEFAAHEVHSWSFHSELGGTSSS
Procedure: as §1

[7] = biological target: Pepsinogen (pork) (pork, UniProt P00791 16-385); assay: as above
Sequence of Pepsinogen (pork) (P00791 16-385): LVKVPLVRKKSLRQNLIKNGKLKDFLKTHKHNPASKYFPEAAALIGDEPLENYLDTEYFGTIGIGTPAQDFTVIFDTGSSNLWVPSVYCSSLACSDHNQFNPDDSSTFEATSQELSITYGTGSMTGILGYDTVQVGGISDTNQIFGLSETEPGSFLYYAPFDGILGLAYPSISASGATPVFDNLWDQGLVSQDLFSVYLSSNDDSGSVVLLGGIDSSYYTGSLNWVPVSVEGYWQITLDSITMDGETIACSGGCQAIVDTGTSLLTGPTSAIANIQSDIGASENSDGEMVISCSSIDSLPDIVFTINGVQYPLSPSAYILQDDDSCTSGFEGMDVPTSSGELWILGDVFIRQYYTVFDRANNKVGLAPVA
Procedure: as §1

[8] = biological target: Anti-human Fc (Dianova, #109-005-098); assay: as above
Procedure: as §1

[9] = biological target: T3, Trypsinogen (cow) (cow, UniProt P00760 18-246); assay: as above
T3 sequence (looked up): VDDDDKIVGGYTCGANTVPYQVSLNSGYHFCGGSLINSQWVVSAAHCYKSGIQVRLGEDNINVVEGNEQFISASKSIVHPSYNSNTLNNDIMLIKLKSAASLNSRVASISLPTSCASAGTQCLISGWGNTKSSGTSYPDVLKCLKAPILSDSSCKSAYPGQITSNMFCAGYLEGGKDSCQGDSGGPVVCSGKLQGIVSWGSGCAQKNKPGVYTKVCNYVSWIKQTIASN
Procedure: as §1

Measured: signal normalized to reference antibody MOR03207

B1: Camille (format not stated) (antibody, V domains shown)
VH: QVQLQQSGPGLVKPSQTLSLTCAISGESVSTSSAAWNWIRQSPSRGLEWLGRTYYRSKWKHEYAVSVKSRITINPDTSKNQFSLQLNSVTPEDTAVYYCARDRYYYSAFDYWGQGTLVTVSS
VL: QSALTQPASVSGSPGQSITISCTGTSSDVGGYNSVSWYQQHPGKAPKLLIYAVSNRPSGVSNRFSGSKSGNTASLTISGLQAEDEADYYCASYDERFTRVFGGGTKLTVLG
notes: also called Antibody Camille
1 ratio: all assays above

Reference: patent publication US20180057581A1 (MorphoSys, published 2018)
